Holding throughout (test): other fluorescence titration; change of the CyPet-YPet FRET signal of the IQ-FRET protein (1 µM by the methods, 0.5 µM by the legend) with varying concentrations of Cam1 or Cam2; 140 mM KCl, 20 mM MOPS pH 7.0, with or without 2 mM MgCl2, 2 mM EGTA (absence of calcium)
Test [1] has as its target CyPet–Myo1^IQ12S742D–YPet FRET reporter protein (S742D phosphomimetic) (S. pombe).
The target in test [2] is T1, CyPet–Myo1^IQ1–YPet FRET reporter protein (S. pombe).
T1 sequence (Q9Y7Z8 whole entry, looked up): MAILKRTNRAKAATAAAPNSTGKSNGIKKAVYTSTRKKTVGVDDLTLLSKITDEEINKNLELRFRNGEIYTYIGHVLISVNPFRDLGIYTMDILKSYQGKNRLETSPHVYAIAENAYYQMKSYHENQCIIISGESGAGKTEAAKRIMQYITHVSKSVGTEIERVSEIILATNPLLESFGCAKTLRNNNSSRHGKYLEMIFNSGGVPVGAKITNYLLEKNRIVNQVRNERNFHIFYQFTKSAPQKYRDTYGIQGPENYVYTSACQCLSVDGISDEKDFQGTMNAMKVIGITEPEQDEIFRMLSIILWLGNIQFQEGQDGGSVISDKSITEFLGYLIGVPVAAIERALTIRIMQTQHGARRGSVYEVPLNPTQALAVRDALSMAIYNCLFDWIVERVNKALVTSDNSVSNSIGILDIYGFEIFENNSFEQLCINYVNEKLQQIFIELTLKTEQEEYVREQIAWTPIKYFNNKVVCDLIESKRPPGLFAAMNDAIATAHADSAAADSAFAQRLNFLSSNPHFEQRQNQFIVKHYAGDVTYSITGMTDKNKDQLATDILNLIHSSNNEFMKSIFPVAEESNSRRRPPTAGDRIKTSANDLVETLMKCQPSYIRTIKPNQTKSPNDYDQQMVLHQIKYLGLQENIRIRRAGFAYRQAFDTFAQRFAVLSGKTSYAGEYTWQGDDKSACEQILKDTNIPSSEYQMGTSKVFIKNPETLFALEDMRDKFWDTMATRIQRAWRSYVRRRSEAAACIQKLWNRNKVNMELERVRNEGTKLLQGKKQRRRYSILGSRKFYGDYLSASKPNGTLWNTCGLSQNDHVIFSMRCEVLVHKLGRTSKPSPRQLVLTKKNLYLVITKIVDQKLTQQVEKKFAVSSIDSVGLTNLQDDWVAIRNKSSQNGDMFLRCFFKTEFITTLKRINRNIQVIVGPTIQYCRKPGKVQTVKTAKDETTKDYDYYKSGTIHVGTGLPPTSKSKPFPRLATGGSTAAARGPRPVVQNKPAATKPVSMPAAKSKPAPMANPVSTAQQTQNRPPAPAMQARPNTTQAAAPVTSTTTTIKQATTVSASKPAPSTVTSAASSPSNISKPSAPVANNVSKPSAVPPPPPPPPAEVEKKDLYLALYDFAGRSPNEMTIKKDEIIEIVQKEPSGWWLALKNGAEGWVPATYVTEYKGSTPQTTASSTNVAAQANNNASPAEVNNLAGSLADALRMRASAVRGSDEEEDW

Test [3] addresses T2, CyPet–Myo1^IQ12–YPet FRET reporter protein (S. pombe).
T2 sequence (Q9Y7Z8 whole entry, looked up): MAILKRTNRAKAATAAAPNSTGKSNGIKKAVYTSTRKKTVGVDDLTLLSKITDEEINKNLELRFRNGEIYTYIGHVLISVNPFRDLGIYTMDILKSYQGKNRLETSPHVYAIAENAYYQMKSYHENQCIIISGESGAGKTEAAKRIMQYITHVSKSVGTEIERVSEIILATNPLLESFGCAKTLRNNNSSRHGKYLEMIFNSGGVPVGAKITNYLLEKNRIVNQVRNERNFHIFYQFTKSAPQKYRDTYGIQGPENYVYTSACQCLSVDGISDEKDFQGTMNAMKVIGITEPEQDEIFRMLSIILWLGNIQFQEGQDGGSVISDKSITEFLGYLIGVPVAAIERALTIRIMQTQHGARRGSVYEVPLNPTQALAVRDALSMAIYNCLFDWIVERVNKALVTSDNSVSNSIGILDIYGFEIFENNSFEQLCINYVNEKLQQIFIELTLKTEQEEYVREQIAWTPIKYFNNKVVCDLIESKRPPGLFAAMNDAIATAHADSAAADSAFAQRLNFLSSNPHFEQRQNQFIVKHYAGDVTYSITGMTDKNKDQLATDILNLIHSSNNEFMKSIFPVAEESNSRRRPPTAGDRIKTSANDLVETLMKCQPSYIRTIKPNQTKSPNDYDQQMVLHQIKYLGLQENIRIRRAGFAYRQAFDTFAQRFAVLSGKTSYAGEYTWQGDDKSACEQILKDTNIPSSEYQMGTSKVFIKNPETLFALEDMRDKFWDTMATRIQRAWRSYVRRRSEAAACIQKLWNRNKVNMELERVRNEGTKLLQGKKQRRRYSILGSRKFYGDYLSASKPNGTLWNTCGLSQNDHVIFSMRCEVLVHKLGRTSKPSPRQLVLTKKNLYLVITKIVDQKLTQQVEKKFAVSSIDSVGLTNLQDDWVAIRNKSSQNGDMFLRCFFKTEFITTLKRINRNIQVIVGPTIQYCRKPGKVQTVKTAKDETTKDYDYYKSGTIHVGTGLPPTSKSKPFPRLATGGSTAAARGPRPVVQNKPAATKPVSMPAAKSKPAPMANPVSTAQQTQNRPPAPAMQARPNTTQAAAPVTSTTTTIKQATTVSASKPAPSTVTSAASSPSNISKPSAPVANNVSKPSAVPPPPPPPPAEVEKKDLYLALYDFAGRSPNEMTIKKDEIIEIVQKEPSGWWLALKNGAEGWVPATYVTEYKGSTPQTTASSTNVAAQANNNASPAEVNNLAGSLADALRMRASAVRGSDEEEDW

B1: Cam2 (calcium-insensitive calmodulin-like protein) (natural protein)
chain: MPASKEQTDEMKEAFVLYDIDKDGLIPTSHVGSVLRSLGINVTDAELAKLSNELGDAIDEKKFMSFVSNKLRETESEEEYIKAFRVFDKDNSGYIETAKFADYMKTLGEKLSDNEVQLMVQEADPTNSGSFDYYDFVQRIMAK
As to B1, the drop in interaction against wild type Myo1^IQ12–FRET in test [1] was found to be 50%. The Kd in test [2] was 400 nM. Moreover, in test [3], the KD of the binding event that gives 70% of the signal change was 1100 nM and the stoichiometry N is 2.
